Data as given in patent US8242083B2, “Kinase substrates” (PerkinElmer Health Sciences, Inc., priority 2008, dated 2012).

What was measured:
Format in all cases: biochemical
EphB3 = biological target: T1, EphB3 (Homo sapiens, UniProt P54753); test: TR-FRET kinase assay, EphB3; details: Kinase Concentration 0.1 nM; 50 nM ULight-labeled substrate, 200 micromolar ATP, 2 hours
T1 sequence (P54753 34-998): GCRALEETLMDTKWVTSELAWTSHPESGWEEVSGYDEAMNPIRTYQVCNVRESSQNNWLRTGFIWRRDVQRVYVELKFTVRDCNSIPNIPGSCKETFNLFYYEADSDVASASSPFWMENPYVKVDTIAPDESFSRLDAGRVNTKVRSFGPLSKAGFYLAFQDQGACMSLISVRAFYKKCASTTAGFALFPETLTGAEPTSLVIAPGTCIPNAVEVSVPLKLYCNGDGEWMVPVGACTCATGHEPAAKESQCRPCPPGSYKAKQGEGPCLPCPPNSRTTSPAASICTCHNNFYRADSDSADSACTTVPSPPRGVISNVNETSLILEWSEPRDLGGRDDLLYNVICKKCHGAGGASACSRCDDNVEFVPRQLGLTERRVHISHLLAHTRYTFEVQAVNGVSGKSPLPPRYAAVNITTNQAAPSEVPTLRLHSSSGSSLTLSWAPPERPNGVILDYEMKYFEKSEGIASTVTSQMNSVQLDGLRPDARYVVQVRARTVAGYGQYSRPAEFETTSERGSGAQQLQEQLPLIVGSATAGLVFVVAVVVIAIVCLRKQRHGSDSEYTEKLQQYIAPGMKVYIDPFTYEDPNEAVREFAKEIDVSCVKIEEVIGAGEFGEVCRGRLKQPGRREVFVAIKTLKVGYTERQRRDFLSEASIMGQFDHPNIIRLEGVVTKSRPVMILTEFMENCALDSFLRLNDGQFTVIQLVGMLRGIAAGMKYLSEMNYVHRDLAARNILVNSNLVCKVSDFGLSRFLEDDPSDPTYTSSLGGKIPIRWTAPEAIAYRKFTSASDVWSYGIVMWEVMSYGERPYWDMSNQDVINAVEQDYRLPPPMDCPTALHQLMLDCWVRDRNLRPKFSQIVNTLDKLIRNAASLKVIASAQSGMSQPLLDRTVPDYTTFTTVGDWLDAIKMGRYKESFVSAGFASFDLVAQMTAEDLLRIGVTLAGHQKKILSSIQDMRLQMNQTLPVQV
Experimental: (§1) TR-FRET kinase assays are performed under standardized conditions: various individual kinases are incubated with 50 nM of kinase substrate BRB1 labeled with the TR-FRET acceptor dye ULight (PerkinElmer) and 200 micromolar ATP in 10 μL of kinase assay buffer (50 mM HEPES pH7.5, 10 mM MgCl2, 3 mM MnCl2, 1 mM EGTA, 2 mM DTT and 0.01% Tween-20) for 2 hours at room temperature. Reactions are stopped with EDTA, and anti-phospho-tyrosine antibodies (clone PT66) labeled with the TR-FRET europium chelate donor dye are added to a final concentration of 2 nM in a final volume of 20 μL. The TR-FRET signal emitted at 665 nm is read one hour after the addition of antibodies using a TR-FRET plate reader such as the Envision® Multilabel Plate reader (PerkinElmer). The emitted signal at 665 nm is proportional to the extent of peptide phosphorylation, Control reactions indicative of background are performed excluding ATP from the reaction.
(§2) Assay conditions are identical to those used described for FIG. 1.

EphA5 = EphA5 (Homo sapiens, UniProt P54756); test: TR-FRET kinase assay, EphA5; details: Kinase Concentration 1 nM; 50 nM ULight-labeled substrate, 200 micromolar ATP, 2 hours
Experimental: as §1, §2

RET = RET (Homo sapiens, UniProt P07949); test: TR-FRET kinase assay, RET; details: Kinase Concentration 0.5 nM; 50 nM ULight-labeled substrate, 200 micromolar ATP, 2 hours
Experimental: as §1, §2

EphA4 = EphA4 (Homo sapiens, UniProt P54764); test: TR-FRET kinase assay, EphA4; details: Kinase Concentration 0.5 nM; 50 nM ULight-labeled substrate, 200 micromolar ATP, 2 hours
Experimental: as §1, §2

FLT3 = FLT3 (Homo sapiens, UniProt P36888); test: TR-FRET kinase assay, FLT3; details: Kinase Concentration 0.1 nM; 50 nM ULight-labeled substrate, 200 micromolar ATP, 2 hours
Experimental: as §1, §2

IRR = IRR (Homo sapiens, UniProt P14616); test: TR-FRET kinase assay, IRR; details: Kinase Concentration 0.5 nM; 50 nM ULight-labeled substrate, 200 micromolar ATP, 2 hours
Experimental: as §1, §2

LCK = LCK (Homo sapiens, UniProt P06239); test: TR-FRET kinase assay, LCK; details: Kinase Concentration 0.5 nM; 50 nM ULight-labeled substrate, 200 micromolar ATP, 2 hours
Experimental: as §1, §2

TNK1 = biological target: T2, TNK1 (Homo sapiens, UniProt Q13470); test: TR-FRET kinase assay, TNK1; details: Kinase Concentration 1 nM; 50 nM ULight-labeled substrate, 200 micromolar ATP, 2 hours
T2 sequence (Q13470 1-666): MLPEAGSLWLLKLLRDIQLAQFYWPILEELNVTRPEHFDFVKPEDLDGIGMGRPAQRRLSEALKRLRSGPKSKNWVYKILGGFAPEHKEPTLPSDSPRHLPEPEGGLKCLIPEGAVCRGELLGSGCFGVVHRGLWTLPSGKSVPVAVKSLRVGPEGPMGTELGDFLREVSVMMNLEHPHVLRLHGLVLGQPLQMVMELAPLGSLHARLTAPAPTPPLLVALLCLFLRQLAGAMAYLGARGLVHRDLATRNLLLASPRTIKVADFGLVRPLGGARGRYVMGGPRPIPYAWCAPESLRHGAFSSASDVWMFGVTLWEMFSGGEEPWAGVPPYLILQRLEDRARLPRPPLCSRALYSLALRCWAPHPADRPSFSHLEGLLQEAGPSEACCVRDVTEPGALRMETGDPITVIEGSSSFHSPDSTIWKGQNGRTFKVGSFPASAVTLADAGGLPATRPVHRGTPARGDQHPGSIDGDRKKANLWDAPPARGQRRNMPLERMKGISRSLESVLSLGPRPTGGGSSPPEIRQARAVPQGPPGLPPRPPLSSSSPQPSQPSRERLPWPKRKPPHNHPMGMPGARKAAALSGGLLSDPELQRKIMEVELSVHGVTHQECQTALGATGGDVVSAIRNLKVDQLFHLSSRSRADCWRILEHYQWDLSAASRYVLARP
Experimental: as §1, §2

HER2 = HER2 (Homo sapiens, UniProt P04626); test: TR-FRET kinase assay, HER2; details: Kinase Concentration 10 nM; 50 nM ULight-labeled substrate, 200 micromolar ATP, 2 hours
Experimental: as §1, §2

DGFR [T790M] = DGFR [T790M] (Homo sapiens, UniProt P00533, T790M); test: TR-FRET kinase assay, DGFR [T790M]; details: Kinase Concentration 0.5 nM; 50 nM ULight-labeled substrate, 200 micromolar ATP, 2 hours
Experimental: as §1, §2

EphA2 = EphA2 (Homo sapiens, UniProt P29317); test: TR-FRET kinase assay, EphA2; details: Kinase Concentration 0.25 nM; 50 nM ULight-labeled substrate, 200 micromolar ATP, 2 hours
Experimental: as §1, §2

FLT1 = FLT1 (Homo sapiens, UniProt P17948); test: TR-FRET kinase assay, FLT1; details: Kinase Concentration 0.25 nM; 50 nM ULight-labeled substrate, 200 micromolar ATP, 2 hours
Experimental: as §1, §2

FES = FES (Homo sapiens, UniProt P07332); test: TR-FRET kinase assay, FES; details: Kinase Concentration 1 nM; 50 nM ULight-labeled substrate, 200 micromolar ATP, 2 hours
Experimental: as §1, §2

Chain of EphA5 (P54756 25-1037, species assumed): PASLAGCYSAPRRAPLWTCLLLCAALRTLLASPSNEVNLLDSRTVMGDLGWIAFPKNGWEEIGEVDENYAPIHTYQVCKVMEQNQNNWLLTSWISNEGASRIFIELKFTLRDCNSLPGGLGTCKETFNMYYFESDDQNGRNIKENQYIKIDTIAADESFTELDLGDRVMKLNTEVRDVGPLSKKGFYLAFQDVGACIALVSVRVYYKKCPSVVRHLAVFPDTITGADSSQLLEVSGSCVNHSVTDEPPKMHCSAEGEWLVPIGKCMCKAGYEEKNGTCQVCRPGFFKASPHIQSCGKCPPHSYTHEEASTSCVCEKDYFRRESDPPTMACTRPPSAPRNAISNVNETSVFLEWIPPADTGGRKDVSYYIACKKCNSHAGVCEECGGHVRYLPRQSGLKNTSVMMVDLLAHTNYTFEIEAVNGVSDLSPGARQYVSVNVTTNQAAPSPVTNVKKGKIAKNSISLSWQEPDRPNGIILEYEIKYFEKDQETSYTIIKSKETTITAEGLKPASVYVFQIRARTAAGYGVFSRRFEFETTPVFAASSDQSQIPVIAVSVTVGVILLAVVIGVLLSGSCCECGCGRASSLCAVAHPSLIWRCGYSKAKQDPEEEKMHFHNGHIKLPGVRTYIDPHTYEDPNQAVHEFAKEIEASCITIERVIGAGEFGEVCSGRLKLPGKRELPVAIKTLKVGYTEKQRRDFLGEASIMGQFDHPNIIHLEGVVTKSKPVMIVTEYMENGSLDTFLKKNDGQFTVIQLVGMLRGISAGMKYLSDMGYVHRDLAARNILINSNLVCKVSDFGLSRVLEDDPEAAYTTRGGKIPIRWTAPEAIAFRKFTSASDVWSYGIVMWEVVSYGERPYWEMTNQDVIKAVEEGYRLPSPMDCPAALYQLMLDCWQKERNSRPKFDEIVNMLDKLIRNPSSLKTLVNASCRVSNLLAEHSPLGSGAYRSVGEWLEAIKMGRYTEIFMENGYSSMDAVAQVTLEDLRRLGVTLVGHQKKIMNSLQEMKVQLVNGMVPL
Chain of FLT1 (P17948 27-1338, species assumed): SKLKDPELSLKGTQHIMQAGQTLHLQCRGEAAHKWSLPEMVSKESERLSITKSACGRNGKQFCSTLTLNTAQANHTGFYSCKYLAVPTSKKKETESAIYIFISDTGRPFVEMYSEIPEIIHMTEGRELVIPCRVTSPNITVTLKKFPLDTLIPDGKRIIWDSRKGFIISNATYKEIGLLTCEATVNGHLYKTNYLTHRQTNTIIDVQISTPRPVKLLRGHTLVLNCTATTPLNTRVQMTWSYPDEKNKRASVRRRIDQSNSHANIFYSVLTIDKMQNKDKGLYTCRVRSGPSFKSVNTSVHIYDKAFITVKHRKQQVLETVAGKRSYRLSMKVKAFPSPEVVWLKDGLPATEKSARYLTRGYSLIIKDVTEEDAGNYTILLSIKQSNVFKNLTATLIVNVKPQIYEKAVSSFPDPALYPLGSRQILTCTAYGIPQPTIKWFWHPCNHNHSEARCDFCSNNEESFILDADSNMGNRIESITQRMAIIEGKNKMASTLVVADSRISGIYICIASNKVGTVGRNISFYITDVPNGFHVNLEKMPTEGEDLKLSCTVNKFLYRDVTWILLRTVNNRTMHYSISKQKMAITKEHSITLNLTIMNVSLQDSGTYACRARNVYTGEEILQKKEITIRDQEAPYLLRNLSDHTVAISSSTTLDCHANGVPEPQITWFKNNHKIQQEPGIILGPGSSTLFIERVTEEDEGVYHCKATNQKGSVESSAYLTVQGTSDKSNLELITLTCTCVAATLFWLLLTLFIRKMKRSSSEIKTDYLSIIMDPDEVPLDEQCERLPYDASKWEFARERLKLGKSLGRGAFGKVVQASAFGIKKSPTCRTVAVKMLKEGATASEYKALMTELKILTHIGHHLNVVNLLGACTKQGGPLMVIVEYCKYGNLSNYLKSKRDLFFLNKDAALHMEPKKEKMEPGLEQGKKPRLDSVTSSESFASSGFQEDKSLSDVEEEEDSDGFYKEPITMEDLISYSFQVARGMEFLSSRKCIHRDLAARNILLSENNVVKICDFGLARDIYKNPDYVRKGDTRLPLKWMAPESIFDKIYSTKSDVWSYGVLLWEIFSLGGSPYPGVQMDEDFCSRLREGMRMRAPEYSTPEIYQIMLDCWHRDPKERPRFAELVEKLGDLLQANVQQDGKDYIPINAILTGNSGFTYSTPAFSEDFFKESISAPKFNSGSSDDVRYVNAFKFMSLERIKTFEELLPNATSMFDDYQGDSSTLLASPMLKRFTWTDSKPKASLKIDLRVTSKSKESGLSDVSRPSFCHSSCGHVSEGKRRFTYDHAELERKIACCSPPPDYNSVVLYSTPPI
Chain of IRR (P14616 27-1297, species assumed): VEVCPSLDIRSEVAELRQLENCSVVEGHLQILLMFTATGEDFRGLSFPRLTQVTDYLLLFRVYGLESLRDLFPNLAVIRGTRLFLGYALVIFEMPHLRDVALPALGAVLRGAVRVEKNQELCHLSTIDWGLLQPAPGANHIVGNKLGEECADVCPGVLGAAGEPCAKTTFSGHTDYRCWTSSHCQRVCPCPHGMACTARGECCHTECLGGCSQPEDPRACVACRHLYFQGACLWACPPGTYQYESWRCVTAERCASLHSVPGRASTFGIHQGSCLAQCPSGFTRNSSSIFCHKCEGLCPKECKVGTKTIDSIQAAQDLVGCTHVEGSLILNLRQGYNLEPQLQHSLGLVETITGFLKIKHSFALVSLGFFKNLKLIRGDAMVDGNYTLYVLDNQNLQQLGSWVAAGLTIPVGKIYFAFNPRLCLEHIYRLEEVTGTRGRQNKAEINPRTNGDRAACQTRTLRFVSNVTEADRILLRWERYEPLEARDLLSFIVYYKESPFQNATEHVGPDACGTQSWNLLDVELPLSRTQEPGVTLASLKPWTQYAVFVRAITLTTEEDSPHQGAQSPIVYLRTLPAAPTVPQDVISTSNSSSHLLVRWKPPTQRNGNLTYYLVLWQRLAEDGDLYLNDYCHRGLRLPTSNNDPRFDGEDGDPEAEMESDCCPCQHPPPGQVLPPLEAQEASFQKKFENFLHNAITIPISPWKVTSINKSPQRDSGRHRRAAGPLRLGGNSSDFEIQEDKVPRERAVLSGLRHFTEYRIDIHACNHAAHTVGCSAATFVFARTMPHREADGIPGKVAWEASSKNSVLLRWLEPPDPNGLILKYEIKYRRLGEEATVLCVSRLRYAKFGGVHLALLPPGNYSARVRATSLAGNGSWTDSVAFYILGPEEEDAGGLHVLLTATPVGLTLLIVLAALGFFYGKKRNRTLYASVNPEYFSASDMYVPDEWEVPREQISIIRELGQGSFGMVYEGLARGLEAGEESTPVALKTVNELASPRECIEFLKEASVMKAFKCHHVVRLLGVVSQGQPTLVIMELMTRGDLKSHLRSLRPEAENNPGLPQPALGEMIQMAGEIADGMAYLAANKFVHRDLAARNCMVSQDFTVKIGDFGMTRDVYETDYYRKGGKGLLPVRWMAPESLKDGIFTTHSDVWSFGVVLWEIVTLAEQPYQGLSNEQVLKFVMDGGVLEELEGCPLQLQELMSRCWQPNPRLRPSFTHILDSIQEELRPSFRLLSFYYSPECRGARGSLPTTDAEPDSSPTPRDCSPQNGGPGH
Chain of LCK (P06239 whole entry, species assumed): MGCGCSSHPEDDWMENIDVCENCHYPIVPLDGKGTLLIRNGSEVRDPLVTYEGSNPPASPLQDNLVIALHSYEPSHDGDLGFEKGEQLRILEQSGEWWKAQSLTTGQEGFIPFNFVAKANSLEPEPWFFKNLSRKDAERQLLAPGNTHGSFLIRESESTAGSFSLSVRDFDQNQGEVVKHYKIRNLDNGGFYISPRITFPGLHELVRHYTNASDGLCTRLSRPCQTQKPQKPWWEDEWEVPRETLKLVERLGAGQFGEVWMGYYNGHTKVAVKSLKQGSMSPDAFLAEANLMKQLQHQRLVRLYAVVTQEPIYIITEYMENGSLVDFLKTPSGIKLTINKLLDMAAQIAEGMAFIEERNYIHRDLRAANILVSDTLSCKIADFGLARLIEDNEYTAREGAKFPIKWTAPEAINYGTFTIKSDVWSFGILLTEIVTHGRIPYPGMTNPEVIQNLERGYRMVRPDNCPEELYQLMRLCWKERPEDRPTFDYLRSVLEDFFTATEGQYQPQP
Chain of EphA4 (P54764 20-986, species assumed): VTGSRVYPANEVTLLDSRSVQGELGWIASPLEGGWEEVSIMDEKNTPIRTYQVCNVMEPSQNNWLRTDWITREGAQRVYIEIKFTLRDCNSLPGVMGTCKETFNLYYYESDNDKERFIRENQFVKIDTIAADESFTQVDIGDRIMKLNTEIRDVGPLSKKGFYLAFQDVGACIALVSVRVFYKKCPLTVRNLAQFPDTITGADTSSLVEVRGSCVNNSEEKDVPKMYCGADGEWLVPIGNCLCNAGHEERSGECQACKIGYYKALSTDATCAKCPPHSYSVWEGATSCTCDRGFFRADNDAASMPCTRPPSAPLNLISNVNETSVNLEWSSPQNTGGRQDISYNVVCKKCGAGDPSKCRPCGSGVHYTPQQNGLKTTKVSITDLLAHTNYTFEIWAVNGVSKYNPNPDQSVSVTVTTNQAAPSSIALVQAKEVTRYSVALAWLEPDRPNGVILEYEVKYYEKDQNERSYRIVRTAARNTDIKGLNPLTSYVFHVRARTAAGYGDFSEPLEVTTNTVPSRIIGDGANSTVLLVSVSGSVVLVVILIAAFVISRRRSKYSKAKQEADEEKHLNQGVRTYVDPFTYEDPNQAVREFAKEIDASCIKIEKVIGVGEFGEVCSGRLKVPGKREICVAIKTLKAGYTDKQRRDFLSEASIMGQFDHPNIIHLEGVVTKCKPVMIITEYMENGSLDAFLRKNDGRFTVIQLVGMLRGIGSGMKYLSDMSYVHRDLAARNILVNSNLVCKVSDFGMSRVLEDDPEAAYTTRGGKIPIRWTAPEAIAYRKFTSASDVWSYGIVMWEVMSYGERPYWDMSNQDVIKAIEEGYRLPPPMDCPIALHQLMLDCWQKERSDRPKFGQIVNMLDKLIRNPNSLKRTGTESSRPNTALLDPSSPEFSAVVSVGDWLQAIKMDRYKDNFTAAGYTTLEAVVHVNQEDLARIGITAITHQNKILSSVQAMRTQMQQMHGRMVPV

C AYE AYE AYE K EYA EYA EYA K AYA EYE R (CAYEAYEAYEKEYAEYAEYAKAYAEYER; tyrosine kinase substrate peptide) [BRB1]
Signal to Noise ratio with BRB1 Peptide (EphB3): 24.7 | Signal to Noise ratio with BRB1 Peptide (EphA5): 35.5 | Signal to Noise ratio with BRB1 Peptide (RET): 20.3 | Signal to Noise ratio with BRB1 Peptide (EphA4): 31.5 | Signal to Noise ratio with BRB1 Peptide (FLT3): 25.9 | Signal to Noise ratio with BRB1 Peptide (IRR): 19.2 | Signal to Noise ratio with BRB1 Peptide (LCK): 12.3 | Signal to Noise ratio with BRB1 Peptide (TNK1): 6.8 | Signal to Noise ratio with BRB1 Peptide (HER2): 1.4 | Signal to Noise ratio with BRB1 Peptide (DGFR [T790M]): 3.3 | Signal to Noise ratio with BRB1 Peptide (EphA2): 26.9 | Signal to Noise ratio with BRB1 Peptide (FLT1): 4.1 | Signal to Noise ratio with BRB1 Peptide (FES): 24.9
